This note sets out measurements from US12692303.

This test addresses IL-23-p40 (human) (UniProt P29460). The test is described as follows: Binding ELISA: IL-23-p40 coated at 2 ug/ml, antibody dilution series 0 to 5 ug/ml, goat anti-human IgG secondary antibody, OD450 (reference 650 nm). The sheet prints no unit on the x axis; ng/ml follows from the range in paragraph 77 (highest point at 5000). Background: In an ELISA, binding on a coated surface is turned into a signal by an enzyme label.

IL-23-p40 (human), sequence (P29460 23-328 limits assumed): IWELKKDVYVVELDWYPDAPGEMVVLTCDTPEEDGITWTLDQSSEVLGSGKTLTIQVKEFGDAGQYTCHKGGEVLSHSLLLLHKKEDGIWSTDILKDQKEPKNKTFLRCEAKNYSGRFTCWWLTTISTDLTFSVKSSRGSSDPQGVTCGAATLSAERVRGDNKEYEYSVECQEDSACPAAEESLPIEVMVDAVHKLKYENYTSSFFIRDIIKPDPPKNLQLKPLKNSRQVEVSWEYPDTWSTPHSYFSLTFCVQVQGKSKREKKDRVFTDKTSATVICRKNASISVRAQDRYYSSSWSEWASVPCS

Consider IL-23 p40 specific antibody QX001S, for which the EC50 turned out to be 0.0179 µg/mL.

A word on the EC50: it is the concentration giving half of the maximal effect. High values mean a less potent agent, low ones a more potent agent.
